Test results from US20100081624A1, “SELECTIVE PEPTIDES THAT INHIBIT THE BIOLOGICAL ACTIVITY OF CALCINEURIN” (Consejo Superior de Investigaciones Cientficas, priority 2005, published 2010).

Target: Calcineurin (CN) of HeLa cells, endogenous
Experiment: cell-based or functional assay

| Substance | percentage of cells with cytosolic NFATc2 staining after calcium ionophore [%] |
| --- | --- |
| GFP-LxVPc1 fusion protein | 77 |
| GFP-VIVIT fusion protein | 92 |
